Experimental data: patent US20080219974A1 (published 2008)
Where a chain is given by its changes, count along the chain named. In names and notes the source's numbering stands.

T1: Human HM1.24 on RPMI 8226 multiple myeloma cells (UniProt Q10589 1-161)
T1 chain: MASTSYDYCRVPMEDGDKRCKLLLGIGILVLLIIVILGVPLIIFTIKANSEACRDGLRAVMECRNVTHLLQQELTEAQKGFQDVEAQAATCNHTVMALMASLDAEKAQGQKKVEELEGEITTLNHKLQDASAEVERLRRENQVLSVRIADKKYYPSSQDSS

T2: His-tagged HM1.24 antigen, residues N49-A163 of the extracellular domain (UniProt Q10589 49-163)
T2 chain: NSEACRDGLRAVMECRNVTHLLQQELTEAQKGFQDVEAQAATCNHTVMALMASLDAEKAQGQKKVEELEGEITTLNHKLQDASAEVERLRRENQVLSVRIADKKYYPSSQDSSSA

B1: HM1.24_H2L2 (antibody, V domains shown)
VH: EVQLVESGGGLVKPGGSLRLSCAASGYTFTPYWMQWVRQAPGKGLEWMGSIFPGDGDTRYSQSFQGQVTISADKSISTAYMELSSLRSEDTAVYYCARGLRRGGYYFDYWGQGTLVTVSS
VL: DIVMTQSPSSLSASVGDRVTITCQASQDVNTAVAWYQQKPDQSPKLLIYSASNRYTGVPDRITGSGSGTDFTLTISSLQAEDVAVYYCQQHYSTPFTFGSGTKLEIKR
B2: H2L3_Hybrid_S239D/I332E (antibody, V domains shown)
VH: B1 VH
VL: B1 VL with S9P, S10T, A13L, V15P, D17E, I21L, T22S, Q24R, A80P, V83F
B3: H0L0_IgG1_S239D/I332E (antibody, V domains shown)
VH: QVQLQQSGAELARPGASVKLSCKASGYTFTPYWMQWVKQRPGQGLEWIGSIFPGDGDTRYSQKFKGKATLTADKSSSTAYMQLSILAFEDSAVYYCARGLRRGGYYFDYWGQGTTLTVSS
VL: DIVMTQSHKFMSTSVGDRVSITCKASQDVNTAVAWYQQKPGQSPKLLIYSASNRYTGVPDRITGSGSGTDFTFTISSVQAEDLALYYCQQHYSTPFTFGSGTKLEIK
B4: HM1.24_H0L0_IgG1_WT (antibody, V domains shown)
VH: B3 VH
VL: DIVMTQSHKFMSTSVGDRVSITCKASQDVNTAVAWYQQKPGQSPKLLIYSASNRYTGVPDRITGSGSGTDFTFTISSVQAEDLALYYCQQHYSTPFTFGSGTKLEIKR
B5: HM1.24_H1L2 (antibody, V domains shown)
VH: QVQLVQSGAEVKKPGASVKVSCKASGYTFTPYWMQWVRQAPGQGLEWMGSIFPGDGDTRYSQSFQGQVTISADKSISTAYMELSRLRSDDTAVYYCARGLRRGGYYFDYWGQGTLVTVSS
VL: B1 VL
B6: HM1.24_H1L4 (antibody, V domains shown)
VH: B5 VH
VL: DIVMTQSPLSLPVTLGQPASISCKASQDVNTAVAWYLQKPGKSPKLLIYSASNRYTGVPDRITGSGSGTDFTLKISRVEAEDVGVYYCQQHYSTPFTFGSGTKLEIKR
B7: HM1.24_H2L4 (antibody, V domains shown)
VH: B1 VH
VL: B6 VL
B8: H1L3_Hybrid_S239D/I332E (antibody, V domains shown)
VH: B5 VH
VL: B1 VL with S9P, S10T, A13L, V15P, D17E, I21L, T22S, Q24R, A80P, V83F
B9: HM1.24_H1.2 heavy chain variant with HM1.24_L4 light chain (antibody, V domains shown)
VH: B5 VH with D55S
VL: B6 VL
B10: HM1.24_H1.4_L2_Hybrid_S239D/I332E (antibody, V domains shown)
VH: B5 VH with G56A
VL: B1 VL
B11: HM1.24_H1.2_L2_Hybrid_S239D/I332E (antibody, V domains shown)
VH: B5 VH with D55S
VL: B1 VL
B12: HM1.24_H1.3_L2_Hybrid_S239D/I332E (antibody, V domains shown)
VH: B5 VH with G56S
VL: B1 VL
B13: HM1.24_H2.3 heavy chain variant with HM1.24_L4 light chain (antibody, V domains shown)
VH: B1 VH with G56S
VL: B6 VL
B14: HM1.24_H1.4 heavy chain variant with HM1.24_L4 light chain (antibody, V domains shown)
VH: B5 VH with G56A
VL: B6 VL
B15: HM1.24_H1.1 heavy chain variant with HM1.24_L4 light chain (antibody, V domains shown)
VH: B5 VH with D55E
VL: B6 VL
B16: HM1.24_H2.1 heavy chain variant with HM1.24_L4 light chain (antibody, V domains shown)
VH: B1 VH with D55E
VL: B6 VL
B17: HM1.24_H1.3 heavy chain variant with HM1.24_L4 light chain (antibody, V domains shown)
VH: B5 VH with G56S
VL: B6 VL
B18: HM1.24_H2.4 heavy chain variant with HM1.24_L4 light chain (antibody, V domains shown)
VH: B1 VH with G56A
VL: B6 VL
B19: HM1.24_H1.1_L2_Hybrid_S239D/I332E (antibody, V domains shown)
VH: B5 VH with D55E
VL: B1 VL

Molecular target: T1, Human HM1.24 on RPMI 8226 multiple …
Assay: flow cytometry

EC50	Binder
5.83 nM	B1
13.1 nM	B2
2.22 nM	B3
2.46 nM	B4
2.52 nM	B5
1.89 nM	B6
3.55 nM	B7
3.26 nM	B8

Molecular target: T2, His-tagged HM1.24 antigen, residues …
Assay: Biacore

koff	Binder
0.00203 s⁻¹	B9
0.00352 s⁻¹	B10
0.00371 s⁻¹	B11
0.00318 s⁻¹	B5
0.003 s⁻¹	B12
0.00352 s⁻¹	B6
0.00374 s⁻¹	B13
0.00298 s⁻¹	B14
0.00251 s⁻¹	B15
0.00266 s⁻¹	B16
0.00261 s⁻¹	B17
0.00418 s⁻¹	B7
0.004 s⁻¹	B18
0.0032 s⁻¹	B19

Molecular target: T2, His-tagged HM1.24 antigen, residues …
Assay: Biacore
Remark: another data set of the same source

koff	Binder
0.0023 s⁻¹	B9
0.00274 s⁻¹	B10
0.0039 s⁻¹	B11
0.00241 s⁻¹	B5
0.00279 s⁻¹	B12
0.00243 s⁻¹	B6
0.00327 s⁻¹	B13
0.00298 s⁻¹	B14
0.00201 s⁻¹	B15
0.00218 s⁻¹	B16
0.00229 s⁻¹	B17
0.00299 s⁻¹	B7
0.0029 s⁻¹	B18
0.00206 s⁻¹	B19

Molecular target: T2, His-tagged HM1.24 antigen, residues …
Assay: Biacore
Remark: another data set of the same source

Kd	Binder
0.0637 nM	B3
0.0537 nM	B4
0.0711 nM	B9
0.0574 nM	B5
0.0572 nM	B6

Molecular target: T2, His-tagged HM1.24 antigen, residues …
Assay: Biacore
Remark: another data set of the same source

Kd	Binder
0.0522 nM	B3
0.0511 nM	B4
0.062 nM	B9
0.0269 nM	B5
0.0381 nM	B6
